By IC50 is commonly meant the concentration at which inhibition is half-maximal. Read a high IC50 as weaker potency. Usually EC50 stands for the concentration needed to bring the measured effect to its halfway point. A low value points to greater potency.

These results are taken from patent US20140112931A1 (UNIVERSITE DE MONTPELLIER 1, published 2014).

For assay [1], the target named is T1, EGFR on EGFR-transfected NIH 3T3 cells (UniProt P00533 25-1210, limits assumed).
T1 construct: whole, on cells; also called ErbB1; HER1
Description: flow cytometry on EGFR-transfected NIH 3T3 cells.

Assay [2] addresses T2, HER3 receptor on cells (HER3- and HER2/HER3-transfected NIH 3T3 cells, SKBR3 cells, BxPC3 cells) (human, UniProt P21860 20-1342).
T2 construct: whole, on cells
Description: flow cytometry on HER3-transfected NIH 3T3 cells. For orientation: A flow cytometer gives signals particle by particle.

In assay [3] the target is T3, HER2 on HER2- or HER2/HER3-transfected NIH 3T3 cells (UniProt P04626 23-1255, limits assumed).
T3 construct: whole, on cells
Description: flow cytometry on HER2-transfected NIH 3T3 cells.

In assay [4] the target is T2, HER3 receptor on cells (HER3- and …). Description: flow cytometry on HER2/HER3-transfected NIH 3T3 cells.
For assay [5] the target is unchanged. Description: flow cytometry competition on SKBR3 cells; HRG varied; competitor: antibody 12H8-B11 at the concentration giving 50% maximal binding; antibody 12H8-B11 as the displaced probe, SKBR3 cells. How it is done:
(§1) After one washing with PBS-1% BSA, anti-HER3 mAbs, at concentration giving 50% maximal binding, were added to each well for 1 h on ice.

Assay [6] shares this target. Description: FACS competition on SKBR3 cells: heregulin against HER3-specific positive control antibody B. How it is done: as §1
Assay [7] addresses T4, human HER3-Fc protein (R&D system) (human, UniProt P21860 20-643).
T4 construct: Bought (R&D system); called soluble HER3-Fc; also called soluble HER3-Fc; HER3-Fc antigen; not shown: Fc part
Description: ELISA, HER3-Fc coated at 250 ng/ml. A general note: An ELISA detects its analyte on a solid surface through an enzyme-linked reagent.

B1: murine anti-HER3 monoclonal antibody 9F7-F11 (antibody, V domains shown)
VH: EVKLVESGGGLVQPGGSLKLSCAASGFTFSSYTMSWVRQTPEKRLEWVAYISDGGGVTYYPDTIKGRFTISRDNAKNTLYLQMSSLKSEDTAMYYCARDRYGLFAYWGQGTLVTVSA
VL: DIVMTQSQKFMSTSVGDRVSITCKASQNVGIAVAWYQQKPGQSPKLLIYSASNRYTGVPDRFTGSGSGTDFTLTISNMQSEDLADYFCQQYSNYPYTFGGGTKLEIK
On to B1, for which the “geometric mean (flow cytometry)” value was 0.4 in assay [1], 1.8 in assay [2], 0.4 in assay [3] and 12.4 in assay [4].

B2: heregulin (HRG) (ligand, UniProt Q02297-6 177-237, looked up)
chain: SHLVKCAEKEKTFCVNGGECFMVKDLSNPSRYLCKCPNEFTGDRCQNYVMASFYKHLGIEF
notes: also called HRG ligand
As to B2, the IC50 in assay [5] was ~2.5 nM. For the same molecule, in assay [6], the “IC50 (read off the curve)” value was ~2 nM.

B3: anti-HER3 antibody U1-59 (Amgen/U3 Pharma-Daiichi Sankyo) (antibody, V domains shown)
VH: QVQLQQWGAGLLKPSETLSLTCAVYGGSFSGYYWSWIRQPPGKGLEWIGEINHSGSTNYNPSLKSRVTISVETSKNQFSLKLSSVTAADTAVYYCARDKWTWYFDLWGRGTLVTVSS
VL: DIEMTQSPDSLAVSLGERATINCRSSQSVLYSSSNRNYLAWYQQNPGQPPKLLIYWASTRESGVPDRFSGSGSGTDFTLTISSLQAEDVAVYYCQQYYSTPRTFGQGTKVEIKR
Regarding B3, the EC50 in assay [7] was ~0.2 µg/mL. Besides, the “geometric mean (flow cytometry)” value was determined as 0.2 in assay [1], 9.3 in assay [2], 0.4 in assay [3] and 15.5 in assay [4].

B4: anti-HER3 antibody Ab6 (Merrimack Pharmaceuticals) (antibody, V domains shown)
VH: EVQLLESGGGLVQPGGSLRLSCAASGFTFSHYVMAWVRQAPGKGLEWVSSISSSGGWTLYADSVKGRFTISRDNSKNTLYLQMNSLRAEDTAVYYCTRGLKMATIFDYWGQGTLVTVSS
VL: QSALTQPASVSGSPGQSITISCTGTSSDVGSYNVVSWYQQHPGKAPKLIIYEVSQRPSGVSNRFSGSKSGNTASLTISGLQTEDEADYYCCSYAGSSIFVIFGGGTKVTVL
As for B4, the “geometric mean (flow cytometry)” value in assay [1] was found to be 0.2; in assay [2], 7.8; in assay [3], 0.3; in assay [4], 14.1.
